# According to US20200345898:
# T1: lysyl oxidase (LOX), recombinant human, in supernatant of doxycycline-induced HEK293 (Flp-In T-REx 293) cells
# T1 chain: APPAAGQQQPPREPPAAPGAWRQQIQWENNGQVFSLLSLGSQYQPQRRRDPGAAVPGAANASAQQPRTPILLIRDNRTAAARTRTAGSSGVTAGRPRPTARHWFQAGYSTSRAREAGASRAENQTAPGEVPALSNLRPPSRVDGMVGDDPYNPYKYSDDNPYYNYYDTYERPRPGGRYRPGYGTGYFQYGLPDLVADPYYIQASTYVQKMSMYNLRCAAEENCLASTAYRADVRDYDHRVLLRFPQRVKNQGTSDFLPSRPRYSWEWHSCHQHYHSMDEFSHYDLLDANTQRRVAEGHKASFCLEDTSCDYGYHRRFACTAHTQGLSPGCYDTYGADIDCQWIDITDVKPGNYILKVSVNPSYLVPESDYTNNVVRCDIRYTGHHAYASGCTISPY
# Biological target: T1, lysyl oxidase (LOX), recombinant human, …
protein,measurement,value
"bone morphogenetic protein-1 (BMP1), recombinant human, in supernatant of doxycycline-induced HEK293 (Flp-In T-REx 293) cells (protein) AATSRPERVWPDGVIPFVIGGNFTGSQRAVFRQAMRHWEKHTCVTFLERTDEDSYIVFTYRPCGCCSYVGRRGGGPQAISIGKNCDKFGIVVHELGHVVGFWHEHTRPDRDRHVSIVRENIQPGQEYNFLKMEPQEVESLGETYDFDSIMHYARNTFSRGIFLDTIVPKYEVNGVKPPIGQRTRLSKGDIAQARKLYKCPACGETLQDSTGNFSSPEYPNGYSAHMHCVWRISVTPGEKIILNFTSLDLYRSRLCWYDYVEVRDGFWRKAPLRGRFCGSKLPEPIVSTDSRLWVEFRSSSNWVGKGFFAVYEAICGGDVKKDYGHIQSPNYPDDYRPSKVCIWRIQVSEGFHVGLTFQSFEIERHDSCAYDYLEVRDGHSESSTLIGRYCGYEKPDDIKSTSSRLWLKFVSDGSINKAGFAVNFFKEVDECSRPNRGGCEQRCLNTLGSYKCSCDPGYELAPDKRRCEAACGGFLTKLNGSITSPGWPKEYPPNKNCIWQLVAPTQYRISLQFDFFETEGNDVCKYDFVEVRSGLTADSKLHGKFCGSEKPEVITSQYNNMRVEFKSDNTVSKKGFKAHFFSEKRPALQPPRGRPHQLKFRVQKRNRTPQ","LOX enzymatic activity, fluorometric assay","the induction of the expression of LOX promoted a strong increase in LOX enzymatic activity, that was further augmented upon incubation with BMP1 supernatants in a time-dependent manner"
same,"LOX immunoreactivity by western blotting in supernatants of fibroblast cultures, one day",the combination of recombinant LOX and BMP1 resulted in complete proteolysis of the pro-LOX
